Data as given in patent CN117024595A (JIANGXI LECHENG XINSHENG BIOTECHNOLOGY RES CO LTD, dated 2023).

Target: T1, 带有His组氨酸标签蛋白的人ST2重组蛋白 (human, UniProt Q01638 19-328, limits assumed)
T1 construct: Captured on a His-capture BLI sensor; also called His-tagged recombinant human ST2 protein; not shown: His tag
T1 sequence (looked up): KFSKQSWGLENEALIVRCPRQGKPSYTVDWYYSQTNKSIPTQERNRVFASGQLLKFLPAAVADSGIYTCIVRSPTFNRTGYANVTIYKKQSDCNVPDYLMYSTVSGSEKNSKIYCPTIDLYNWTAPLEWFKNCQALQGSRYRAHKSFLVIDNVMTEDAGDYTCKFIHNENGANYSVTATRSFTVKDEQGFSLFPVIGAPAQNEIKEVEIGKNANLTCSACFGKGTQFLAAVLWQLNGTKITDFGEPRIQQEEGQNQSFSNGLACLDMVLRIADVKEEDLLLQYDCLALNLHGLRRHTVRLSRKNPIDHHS
Experiment: BLI, His-tagged human ST2 captured on HIS sensor, antibody in solution at several concentrations

B1: 检测抗体D12(抗人ST2的单克隆抗体) (antibody, V domains shown)
VH: QVTLKESGPGILQPSQTLSLTCSFSGFSLSTSGMGVGWIRQPSGKGLEWLAHIWWDDVKQYNPALKSRLTISKDTSSSQVFLKIASVDTADIATYYCARLGGNWDYFDYWGQGTTLTVSS
VL: DIVLTQSPASLVVSLGQRATISCRASESVDSCGVSFMKWLQQKPGQPPKLLIYVASKVESGVPARFGGSGSGTDFSLNIHPVEEDDFAVYFCQQSRKVPWTFGGGTKLEIK
notes: Mouse hybridoma monoclonal antibody purified from ascites on Protein G; HRP-labelled in one orientation of the sandwich ELISA; coupled to fluorescent microspheres in the strip; also called detection antibody
Q: B1 was tested. Which Kd did it give?
A: The Kd was 0.02 nM.
